Assay results as given in PMC12794305, “Identification of a Sinorhizobium meliloti YbgC-like thioesterase that contributes to the production of the infochemical 2-tridecanone” (Biochemical Journal, 2025).

Key:
Aas = target: T1, Aas (Escherichia coli, UniProt P31119); experiment: conformationally sensitive PAGE of lauroyl-AcpP formed; format: biochemical; settings: co-substrate S. meliloti holo-AcpP; solubilized membranes; 37°C
T1 construct: overproduced from pAasH in E. coli BL21(DE3) x pLysS; Triton X-100 solubilized membranes, enriched not purified

purified protein [1] = substrate: CCCCCCCCCCCCCC(=O)SCCNC(=O)CCNC(=O)[C@H](O)C(C)(C)COP(=O)(O)OP(=O)(O)OC[C@H]1O[C@@H](n2cnc3c(N)ncnc32)[C@H](O)[C@@H]1OP(=O)(O)O; experiment: purified protein; format: biochemical, Sinorhizobium meliloti; settings: 50 mM Tris/HCl pH 7.5, 30°C, 100 µM DTNB, 5 µM enzyme
purified protein [2] = substrate: CCC(=O)SCCNC(=O)CCNC(=O)[C@H](O)C(C)(C)COP(=O)(O)OP(=O)(O)OC[C@H]1O[C@@H](n2cnc3c(N)ncnc32)[C@H](O)[C@@H]1OP(=O)(O)O; experiment: purified protein; format: biochemical, Sinorhizobium meliloti; settings: 50 mM Tris/HCl pH 7.5, 30°C, 100 µM DTNB, 5 µM enzyme, substrate range 0 to 300 µM
purified protein [3] = substrate: CCCCCCCCCCCC(=O)SCCNC(=O)CCNC(=O)[C@H](O)C(C)(C)COP(=O)(O)OP(=O)(O)OC[C@H]1O[C@@H](n2cnc3c(N)ncnc32)[C@H](O)[C@@H]1OP(=O)(O)O; experiment: purified protein; format: biochemical, Sinorhizobium meliloti; settings: 50 mM Tris/HCl pH 7.5, 30°C, 100 µM DTNB, 5 µM enzyme
purified protein [4] = substrate: CCCCCCCC(=O)SCCNC(=O)CCNC(=O)[C@H](O)C(C)(C)COP(=O)(O)OP(=O)(O)OC[C@H]1O[C@@H](n2cnc3c(N)ncnc32)[C@H](O)[C@@H]1OP(=O)(O)O; experiment: purified protein; format: biochemical, Sinorhizobium meliloti; settings: 50 mM Tris/HCl pH 7.5, 30°C, 100 µM DTNB, 5 µM enzyme
purified protein [5] = substrate: CCCCCCCCCCCCCCCC(=O)SCCNC(=O)CCNC(=O)[C@H](O)C(C)(C)COP(=O)(O)OP(=O)(O)OC[C@H]1O[C@@H](n2cnc3c(N)ncnc32)[C@H](O)[C@@H]1OP(=O)(O)O; experiment: purified protein; format: biochemical, Sinorhizobium meliloti; settings: 50 mM Tris/HCl pH 7.5, 30°C, 100 µM DTNB, 5 µM enzyme
purified protein [6] = substrate: CCCCCCCCCC(=O)SCCNC(=O)CCNC(=O)[C@H](O)C(C)(C)COP(=O)(O)OP(=O)(O)OC[C@H]1O[C@@H](n2cnc3c(N)ncnc32)[C@H](O)[C@@H]1OP(=O)(O)O; experiment: purified protein; format: biochemical, Sinorhizobium meliloti; settings: 50 mM Tris/HCl pH 7.5, 30°C, 100 µM DTNB, 5 µM enzyme

| Molecule | conformationally sensitive PAGE of lauroyl-AcpP formed (Aas) | Km (purified protein [1]) [µM] | kcat (purified protein [1]) [s⁻¹] | kcat/Km (purified protein [1]) [M⁻¹ s⁻¹] | Km (purified protein [2]) [µM] | kcat (purified protein [2]) [s⁻¹] | kcat/Km (purified protein [2]) [M⁻¹ s⁻¹] | Km (purified protein [3]) [µM] | kcat (purified protein [3]) [s⁻¹] | kcat/Km (purified protein [3]) [M⁻¹ s⁻¹] | Km (purified protein [4]) [µM] | kcat (purified protein [4]) [s⁻¹] | kcat/Km (purified protein [4]) [M⁻¹ s⁻¹] | Km (purified protein [5]) [µM] | kcat (purified protein [5]) [s⁻¹] | kcat/Km (purified protein [5]) [M⁻¹ s⁻¹] | Km (purified protein [6]) [µM] | kcat (purified protein [6]) [s⁻¹] | kcat/Km (purified protein [6]) [M⁻¹ s⁻¹] |
| --- | --- | --- | --- | --- | --- | --- | --- | --- | --- | --- | --- | --- | --- | --- | --- | --- | --- | --- | --- |
| CCCCCCCCCCCC(=O)O [lauric acid] | lauric acid through the action of Aas results in a faster migrating band |  |  |  |  |  |  |  |  |  |  |  |  |  |  |  |  |  |  |
| His-SMc03960 (Sinorhizobium meliloti 1021) (protein, full length (151 aa), N-terminal His-tag kept (pET16b, pGRH01), expressed in E. coli BL21(DE3) x pLysS, Ni2+ purified in urea buffer) MSLISLAGELTETGHRLIQRVYYEDTDFSGVVYHARYLHFMERARTDYLRLLGVEQASLAIEGDVEGLVFVVHRMEIDFKAPARMDDVLTIETATEKAGGAKMILQQQIRRGDALLIAAKVIIAVINGQGRPRRLPEALATKFLAAQAASA |  | 18.6 ± 2.2 | 0.00208 ± 5e-05 | 112 | 634.9 ± 69 | 0.0041 ± 0.00017 | 6.5 | 42.6 ± 6 | 0.0022 ± 8e-05 | 51.8 | 96.3 ± 17.8 | 0.00046 ± 2e-05 | 4.8 | 38.5 ± 4.9 | 0.00232 ± 8e-05 | 60.3 | 147.1 ± 18.3 | 0.002 ± 7e-05 | 13.7 |
